Measurements as given in paper PMC3329491, “Insight on an Arginine Synthesis Metabolon from the Tetrameric Structure of Yeast Acetylglutamate Kinase” (PLoS ONE, 2012).

Legend:
[1] = molecular target: the molecule itself; assay: crystal structure; truncated yNAGK, space group P212121, four subunits in the asymmetric unit; with NAG, with NAG and arginine, or ligand-free; grown at 4°C, 50 mM Na acetate pH 4.6, 0.2 M Na-malonate, 2% PEG-8K
[2] = molecular target: the molecule itself; assay: SEC; analytical size exclusion chromatography on Superdex 200 10/300, 24°C, 50 mM Hepes pH 7.5/0.25 M NaCl; elution volume against protein standards

Protein | stoichiometry N [1] | stoichiometry N [2]
truncated yNAGK spanning residues 58 to 356 (AAK domain, lacking the C-terminal DUF619 domain) (domain or fragment, Saccharomyces cerevisiae, UniProt Q01217 58-356, looked up, A Se-Met-substituted form was used for phasing only (not deposited); also called truncated AAK; yNAGK lacking its C-terminal domain; source: E. coli BL21 (DE3), purified (HisTrap); not shown: MGH6 His-tag, N-terminal, kept) VSSTNGFSATRSTVIQLLNNISTKREVEQYLKYFTSVSQQQFAVIKVGGAIISDNLHELASCLAFLYHVGLYPIVLHGTGPQVNGRLEAQGIEPDYIDGIRITDEHTMAVVRKCFLEQNLKLVTALEQLGVRARPITSGVFTADYLDKDKYKLVGNIKSVTKEPIEASIKAGALPILTSLAETASGQMLNVNADVAAGELARVFEPLKIVYLNEKGGIINGSTGEKISMINLDEEYDDLMKQSWVKYGTKLKIREIKELLDYLPRSSSVAIINVQDLQKELFTDSGAGTMIRRGYKLVK | 4 | –
complete mature yeast N-acetyl-L-glutamate kinase (yNAGK), residues 58-513 (enzyme, Saccharomyces cerevisiae, UniProt Q01217 58-513, looked up, for crystallization only: surface-exposed lysine residues reductively dimethylated, N-acetyl-L-glutamate kinase of Saccharomyces cerevisiae, made by processing of the polyprotein precursor encoded by ARG5,6 (Uniprot Q01217); Amplified from pYB3 and inserted into pTrc99a; Methylated protein is stated for crystal NAGK1; Nothing says that the protein of the size exclusion run was methylated; also called complete yNAGK; complete mature yNAGK; source: E. coli BL21 (DE3), purified …) VSSTNGFSATRSTVIQLLNNISTKREVEQYLKYFTSVSQQQFAVIKVGGAIISDNLHELASCLAFLYHVGLYPIVLHGTGPQVNGRLEAQGIEPDYIDGIRITDEHTMAVVRKCFLEQNLKLVTALEQLGVRARPITSGVFTADYLDKDKYKLVGNIKSVTKEPIEASIKAGALPILTSLAETASGQMLNVNADVAAGELARVFEPLKIVYLNEKGGIINGSTGEKISMINLDEEYDDLMKQSWVKYGTKLKIREIKELLDYLPRSSSVAIINVQDLQKELFTDSGAGTMIRRGYKLVKRSSIGEFPSADALRKALQRDAGISSGKESVASYLRYLENSDFVSYADEPLEAVAIVKKDTNVPTLDKFVCSDAAWLNNVTDNVFNVLRRDFPALQWVVSENDANIAWHFDKSQGSYLKGGKVLFWYGIDDINTISELVENFVKSCDTASTLNSSASS | – | 4
